Experimental data published in patent US20260234660A1, “TREATMENT OF MUSCLE RELATED DISORDERS WITH ANTI-HUMAN CACNG1 ANTIBODIES” (Regeneron Pharmaceuticals, Inc., priority 2023, published 2026).

B1: REGN9909: anti-hCACNG1 antibody, HCVR/LCVR SEQ ID NOs: 146/154 (antibody, V domains shown)
VH: EVQLLESGGGLVQPGGSLRLSCAASGFTFNNYGMSWVRQGPGKGLEWVSSISGSGGTTFYADSVKGRFTISRDNSKNTLYLQMNSLRAEDTAVYYCGKGGYCSSSGCRHYGMDVWGQGTTVTVSS
VL: QSVLTQPPSASGTPGQRVTISCSGSSSNIGNNYIYWYQRLPGTTPKLLIYRNNQRPSGVPDRFSGSKSGTSASLAISGLRSEDEADYYCAAWDDTLSGYVFGTGTKVTVL
B2: REGN10713: anti-hCACNG1 antibody, HCVR/LCVR SEQ ID NOs: 162/170, wildtype hIgG1 (antibody, V domains shown)
VH: EVQLVESGGNLVQPGGSLRLSCAASGFTFTSHAMNWVRQAPGKGLEWVSVITGRGFDTHYADSVKGRFTISRDISKNTLYLQMNSLRAEDTAVYYCAKGLYDSGNYYIDYWGQGTLVTVSS
VL: QSVLTQPPSVSAAPGQKVTISCSGSSSNIGNNYVSWYQQLPGTAPKLLIYDNNKRPSGIPDRFSGSKSGTSATLGITGLQTGDEADYYCGTWDLSLSFNWVFGGGTKLTVL
modifications: hIgG1
B3: REGN10717: anti-hCACNG1 antibody, HCVR/LCVR SEQ ID NOs: 34/42, wildtype hIgG1 (antibody, V domains shown)
VH: QVQLVESGGGVVQPGRSLRLSCAASGFTFSTYGMHWVRQAPGKGLEWVAVIWHDGSDKYYVDSVKGRFSIARDNSKNTLYLQMNSLRVEDTGIYYCARRGIRGTVFDHWGLGTLVTVSS
VL: DIQMTQSPSTLSASVGDRVTLTCRASQSISNKLAWYQQKPGKAPNLLIYKASNLESGVPSRFSGSGSGTEFTLTISSLQPDDFATYYCQQYNSYSWTFGQGTKVEIK
modifications: hIgG1
B4: H2aM31941N: anti-hCACNG1 antibody, HCVR/LCVR SEQ ID NOs: 114/122 (antibody, V domains shown)
VH: QVQLVQSGAEVKKPGASVKVSCKASGYAFTTYGITWVRQAPGQGLEWMGWISAYNGNTNYAEKVQGRFTMTTDTSTNTAYMELRSLRSDDTAVYFCARKGHYGSGTYYNPFGFDFWGQGTMVTVSS
VL: EIMLMQSPGTLSLSPGERATLSCRASQSVSSSYLAWYQQKPGQAPRLLIYGASSRATDIPDRFSGSGSGTDFTLTISRLEPEDFAVYFCQQYYGSPWTFGQGTKVEIK
B5: REGN10716: anti-hCACNG1 antibody, HCVR/LCVR SEQ ID NOs: 50/58, wildtype hIgG1 (antibody, V domains shown)
VH: QVQLQESGPGLVKPSETLSLTCTVSGDSINNYYWTWLRQPPGKGLEWIGYIYYSGSANYNPSLKSRVTISVDTSKNQFSLKLNSVTAADTAVYYCARGAVKYFRHWGQGTLVTVSS
VL: EIVLTQSPGTLSLSPGERATLSCRASQTINHNNLAWYQQRPGQAPRLLIYGASNRATAIPDRFSGSGSGTDFTLTISRLEPEDFEVYSCQQYGSLPLTFGGGTKVEIK
modifications: hIgG1
B6: H2aM31944N: anti-hCACNG1 antibody, HCVR/LCVR SEQ ID NOs: 82/90 (antibody, V domains shown)
VH: QVQLVESGGGVVQPGRSLRLSCEASGITFRNYGMHWVRQAPGKGLEWVAVMWYDGSNKYYADSVKGRFTISRDNSKNTVYLQMNSLRAEDTAVYYCARRGHIATAAPFDYWGQGTLVTVSS
VL: DIQMTQSPSSLSASVGDRVTISCRASQSISSYLNWYQQKPGKAPKVLMYAASSLQSGVPSRFSGSGSGTDFTLTISSLQPEDFATYYCQQSYSTPPITFGQGTRLEIK
B7: REGN7660: anti-hCACNG1 antibody, HCVR/LCVR SEQ ID NOs: 130/138 (antibody, V domains shown)
VH: EVQLVESGGGLVQPGGSLKLSCTASGLTLSDSAMHWVRQASGKGLEWVGRIRNKANRYATEYAASVKGRFTISRDDSKNTAYLQMNSLKTEDTAVYYCTRNWKIFLFDYWGQGTLVTVSS
VL: EIVLTQSPGTLTLSPGERATLSCRASQSVGSKYLAWFQQKRGQAPRLLIYGASSRTSGIPDRISGSGSGTDFTLTISRLEPEDFAVYYCQQYGSSPWTFGQGTKVEIK
B8: REGN10715: anti-hCACNG1 antibody, HCVR/LCVR SEQ ID NOs: 18/26, wildtype hIgG1 (antibody, V domains shown)
VH: QVQLQQWGAGLLKPSATLSRTCAVYGGSFSGYYWNWIRQSPGKGLEWIGEILHSGRTNYNPSLKSRVTISVDTSKNQFSLKLTSVTAADTAVYYCAGRIAARHGWFDPWGQGTLVTVSS
VL: DIQMTQSPSSVSTSVGDRVTISCRASQDIRKWLAWYQQKPGKAPKLLIYATSSLQSGVPSRFSGSGSGTDFTLTISSLQPEDFATYFCQQANSFPFTFGQGTKLEIK
modifications: hIgG1

Experiments:
human CACNG1 nanodisc = biological target: T1, human CACNG1 nanodisc (Homo sapiens, UniProt Q06432); assay: Biacore binding kinetics of anti-CACNG1 monoclonal antibodies to human CACNG1 nanodisc, antigen capture format; details: 25° C., 1:1 binding model
T1 construct: made in house
T1 sequence (Q06432 whole entry): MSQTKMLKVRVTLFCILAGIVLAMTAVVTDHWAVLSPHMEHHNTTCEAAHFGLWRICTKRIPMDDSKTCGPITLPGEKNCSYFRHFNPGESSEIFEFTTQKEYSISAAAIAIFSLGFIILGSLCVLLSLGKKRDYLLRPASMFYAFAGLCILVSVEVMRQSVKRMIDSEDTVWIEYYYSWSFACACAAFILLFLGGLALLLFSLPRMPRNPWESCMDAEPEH
Description: Equilibrium dissociation constants (KD values) for nanodisc embedded human CACNG1 expressed with a C-terminal PADRE-Flag-His tag (human CACNG1 nanodisc) binding to purified anti-hCACNG1 antibodies were determined using a real-time surface plasmon resonance biosensor technology with a Biacore T200 instrument. The CM5 Biacore sensor surface was derivatized by amine coupling with a monoclonal mouse anti-His antibody (Cytiva; Marlborough, MA). All Biacore binding studies were performed in a buffer composed of 0.01M HEPES, 0.15M NaCl, 1 mM CaCl2), 0.5 mM MgCl2, pH 7.4 (HBS-N++ running buffer). Different concentrations of anti-hCACNG1 antibodies (ranging from 300 nM to 12 nM in 5-fold serial dilutions) prepared in HBS-N++ running buffer were injected over the captured human CACNG1 nanodisc at a flow rate of 30 μL/minute. Antibody association was monitored for 2 minutes while dissociation was monitored in HBS-N++ running buffer for 5 minutes. At the end of each cycle, the human CACNG1 nanodisc capture surface was regenerated using three 10 second injections of 10 mM Gly pH1.5. All binding kinetics experiments were performed at 25° C.
The specific SPR-Biacore sensorgrams were obtained by a double referencing procedure. The double referencing was performed by first subtracting the signal of each injection over a reference surface (anti-His) from the signal over the experimental surface (anti-His captured human CACNG1 nanodisc) thereby removing contributions from refractive index changes. In addition, running buffer injections were performed to allow subtraction of the signal changes resulting from the dissociation of captured antibodies from the coupled anti-His surface. Kinetic association (ka) and dissociation (kd) rate constants were determined by fitting the real-time sensorgrams to a 1:1 binding model using Scrubber v2.0c curve fitting software. Binding dissociation equilibrium constants (KD) and dissociative half-lives (t1/2) were calculated from the kinetic rate constants as: […]

CACNG1^Hu/Hu myofibers = assay: Antibody binding to single myofibers ex vivo; type: cell-based, mouse; details: 100 nM antibody, 30 minutes
Description: (§1) Following confirmation of CACNG1 antibody binding to human myotubes, a subset of antibodies was tested for binding to fully mature myofibers ex vivo. Single myofibers were isolated from either wildtype mice, mice that were homozygous for the deletion of CACNG1 (referred to as CACNG1 knockout mice), or mice that were homozygous for the expression of human CACNG1 in place of mouse CACNG1 (referred to as CACNG1^Hu/Hu). The gastrocnemius muscle was removed, collagenase digested, and single myofibers were isolated, washed, and incubated overnight at 37° C. at 5% C02, in DMEM+10% horse serum. Following overnight incubation, single myofibers were incubated with 100 nM of each CACNG1 antibody or an isotype control antibody for 30 minutes. Myofibers were then washed twice in DMEM+10% horse serum, and subsequently incubated with 10 ug/mL of fluorescent-conjugated secondary antibodies for 30 minutes, washed twice in DMEM+10% horse serum, and then fixed with 4% paraformaldehyde (PFA) for 15 minutes at room temperature. Single fibers were then washed twice with PBS, stained with Hoechst for 5 minutes, washed once more with PBS, then transferred to microscope slides, coverslipped, and imaged using a Zeiss LSM 710 confocal microscope.

[1] = test system: wildtype or CACNG1 knockout myofibers; assay: Antibody binding to single myofibers ex vivo; type: cell-based, mouse; details: 100 nM antibody, 30 minutes
Description: as §1

human myotubes = assay: Acetylcholine-induced calcium flux assay in human myotubes (FLIPR); type: cell-based; details: antibody 0.01 μM to 1 μM, 1 hour incubation, 20 uM acetylcholine
Description: CACNG1 is the γ1 subunit of the skeletal muscle specific L-type calcium channel, (dihydropyridine receptor), though genetic deletion of CACNG1 appears to have no major impact on skeletal muscle function. To determine whether antibodies that bind CACNG1 impact muscle function, a calcium flux assay was performed on human myotubes that were incubated with CACNG1 antibodies to determine whether these antibodies affect acetylcholine-induced calcium release.
Human skeletal myoblasts (Cook Myosite, Inc.) were plated at 10,000 cells/well of a 96-well plate and were differentiated for 7 days into myotubes. On the final day of differentiation, media was replaced with 50 μL of FLIPR calcium 5 dye with probenecid (Invitrogen) and 50 uL of assay buffer (0.1% BSA-DMEM) per well. CACNG1 and isotype control antibodies were serial diluted in assay buffer and added to the cells and incubated at 37° C. in a 5% CO2 incubator for 1 hour prior to the calcium flux assay. Nicardipine hydrochloride (Sigma) was added to untreated wells to serve as a control for calcium channel blockade. After 1 hour, acetylcholine (Sigma) was added at a 20 uM final concentration to induce myotube calcium release, and plates were assayed on a FLIPR Tetra (Molecular Devices, LLC).

| Molecule | ka (human CACNG1 nanodisc) [M⁻¹ s⁻¹] | kd (human CACNG1 nanodisc) [s⁻¹] | binding to CACNG1^Hu/Hu myofibers ex vivo (CACNG1^Hu/Hu myofibers) | binding to wildtype or CACNG1 knockout myofibers [1] | effect on acetylcholine-induced calcium flux (human myotubes) |
| --- | --- | --- | --- | --- | --- |
| B1 | 331000 | 0.00137 | – | – | – |
| B2 | 74200 | 4.72e-05 | – | – | – |
| B3 | 294000 | 0.0304 | – | – | – |
| B4 | 342000 | 0.000406 | demonstrated binding to CACNG1^Hu/Hu myofibers ex vivo | did not bind to wildtype or CACNG1 knockout myofibers | – |
| B5 | 730000 | 8.36e-05 | – | – | – |
| B6 | 231000 | 0.00395 | – | – | do not inhibit acetylcholine-induced calcium flux |
| B7 | 1.93e+06 | 0.0243 | – | – | – |
| B8 | 152000 | 0.000301 | – | – | – |
